In US20260102461A1 (AIKIUM, published 2026):
Like-named read-outs stand apart in the source and are kept apart here. Blank lines part the entries; values can stand above or below the binder they belong to.

Experiments:
[1] = target: T1, Urotensin-2 receptor (UR-II-R) disordered region, MALTPESPSSFPGLAATGSSVPEPPGGPNATLNSSWASPTEPSSLEDLVATGTI (biotin (position not given)); experiment: ELISA, scaffold coated on the plate, biotinylated peptide titrated, streptavidin-HRP fluorescence
T1 construct: also called Urotensin II R; GPCR2 (Urotensin II)
T1 peptide: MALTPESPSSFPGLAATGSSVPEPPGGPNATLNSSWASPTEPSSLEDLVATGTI
Protocol: (§1) Binder proteins were coated on the surface of a high binding capacity 96 well plate by incubating 100 μL of protein at […] in a coating solution (10 mM Tris pH 8.8, 50 mM NaCl), overnight at 4 C. The next morning, the coating solution was aspirated out and wells were washed once with 300 μL ELISA wash buffer (lx PBS, 0.05% Tween-20) and solution was aspirated out. The wells were blocked with 200 μL of a blocking buffer (1×PBS, 0.05% Tween-20, 3% BSA) at room temperature for 1 hour. After one hour, the blocking solution was aspirated out and 100 μL of biotinylated polypeptide in a binding buffer (1×PBS, 0.05% Tween-20, 0.5% BSA) at various concentrations was added to the appropriate well and incubated for 20 minutes. Peptide solution was aspirated out after 20 minutes and wells were washed 5 times with 300 μL of ELISA wash buffer. To detect the biotinylated peptide, 100 μL of streptavidin-HRP (50 ng/mL) was added to each well and incubated for 1 hour. The wells were subsequently washed 5 times with 300 μL of ELISA wash buffer. 100 μL of QuantaBlu Fluorogenic Peroxidase substrate solution was added to each well, incubated for 30 minutes and reaction stopped by adding 100 μL of stop solution. Fluorescent signal from each well was measured using a Biotek Cytation5 plate reader by exciting the fluorophore at […] and measuring emission at 420 nm. […]

[2] = target: T2, CYSLTR2 N-terminal disordered region, MERKFMSLQPSISVSEMEPNGTFSNNNSRNCTIENFKREFFP (biotin (position not given)); experiment: ELISA fluorescence at 10,000 nM peptide divided by the no-scaffold control; the control bar is marked 1x
T2 construct: also called CysLT2; CysLT2r
T2 peptide: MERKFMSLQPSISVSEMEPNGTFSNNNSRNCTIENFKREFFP
Protocol: (§2) Binder proteins were coated on the surface of a high binding capacity 96 well plate by incubating 100 μL of protein at […] in a coating solution (10 mM Tris pH 8.8, 50 mM NaCl), overnight at 4 C. The next morning, the coating solution was aspirated out and wells were washed once with 300 μL ELISA wash buffer (lx PBS, 0.05% Tween-20) and solution was aspirated out. The wells were blocked with 200 μL of a blocking buffer (1×PBS, 0.05% Tween-20, 3% BSA) at room temperature for 1 hour. After one hour, the blocking solution was aspirated out and 100 μL of biotinylated polypeptide in a binding buffer (1×PBS, 0.05% Tween-20, 0.5% BSA) at various concentrations was added to the appropriate well and incubated for 20 minutes. Peptide solution was aspirated out after 20 minutes and wells were washed 5 times with 300 μL of ELISA wash buffer. To detect the biotinylated peptide, 100 μL of streptavidin-HRP (50 ng/mL) was added to each well and incubated for 1 hour. The wells were subsequently washed 5 times with 300 μL of ELISA wash buffer. 100 μL of QuantaBlu Fluorogenic Peroxidase substrate solution was added to each well, incubated for 30 minutes and reaction stopped by adding 100 μL of stop solution. Fluorescent signal from each well was measured using a Biotek Cytation5 plate reader by exciting the fluorophore at […] and measuring emission at 420 nm. Fluorescent signals were plotted as a function of polypeptide concentration.

[3] = target: T2, CYSLTR2 N-terminal disordered region, …; experiment: modified sandwich ELISA (FIGS. 30A and 30B)
Protocol: as §1

[4] = target: T3, CYSLTR2 Epitope SISVSEMEPNGTFSNNNSRNC (N-terminally biotinylated); experiment: ELISA, scaffold coated on the plate, biotinylated peptide titrated, streptavidin-HRP fluorescence
T3 peptide: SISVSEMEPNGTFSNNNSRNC
Protocol: as §2

MERKFMSLQPSISVSEMEPNG = target: T4, MERKFMSLQPSISVSEMEPNG (N-terminal biotin); experiment: as above
T4 construct: First of three overlapping 21-mers of the CYSLTR2 N-terminal disordered region
T4 peptide: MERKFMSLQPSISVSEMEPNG
Protocol: as §2

[5] = target: T5, KAAG1 disordered region peptide, PGAAAAHLPRWPPPQLAASRREA (biotin (position not given)); experiment: as above
T5 peptide: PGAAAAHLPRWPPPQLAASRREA
Protocol: as §2

[6] = target: T6, CD74 disordered region peptide (CLIP), PPKPVSKMRMATPLLMQALPMGALP (biotin (position not given)); experiment: as above
T6 peptide: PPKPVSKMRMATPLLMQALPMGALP
Protocol: as §2

[7] = target: T5, KAAG1 disordered region peptide, …; experiment: modified sandwich ELISA, fluorescence grade (key: 50000 < x < 100000, Weak binding)
[8] = target: T6, CD74 disordered region peptide (CLIP), …; experiment: modified sandwich ELISA, fluorescence grade (key: >400000, Strong binding)
[9] = target: 25 amino acid epitope of CLIP (CD74); experiment: BLI (Octet), biotinylated peptide on streptavidin tip, scaffold in solution
[10] = target: T3, CYSLTR2 Epitope SISVSEMEPNGTFSNNNSRNC; experiment: ELISA, scaffold coated on the plate, biotinylated peptide titrated, streptavidin-HRP fluorescence
[11] = target: T1, Urotensin-2 receptor (UR-II-R) …; experiment: modified sandwich ELISA (scaffold coated, biotinylated peptide, streptavidin-HRP fluorescence)
[12] = target: T7, KCNA6 Epitope QQQEQQPASGGGGQNGQQAMS (biotin (position not given)); experiment: ELISA, scaffold coated on the plate, biotinylated peptide titrated, streptavidin-HRP fluorescence
T7 peptide: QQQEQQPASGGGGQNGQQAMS
Protocol: as §2

[13] = target: T8, TNFRSF13B disordered region peptide, LPPELRRQRSGEVENNSDNSGRYQ (biotin (position not given)); experiment: as above
T8 peptide: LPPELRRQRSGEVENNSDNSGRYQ
Protocol: as §2

[14] = target: T9, CD40LG Epitope NKEETKKENSFEMQKGDQNPQIAAH (biotin (position not given)); experiment: as above
T9 peptide: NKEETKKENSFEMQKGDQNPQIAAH
Protocol: as §2

[15] = target: T10, GMERKFMSLQPSISVSEMEPNGTFSNNNSRNCTIENFKREFFP (biotinylated, position not given); experiment: as above
T10 peptide: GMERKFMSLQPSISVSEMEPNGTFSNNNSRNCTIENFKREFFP
Protocol: as §2

[16] = target: T2, CYSLTR2 N-terminal disordered region, …; experiment: modified sandwich ELISA, fluorescence grade (key: 50000 < x < 100000, Weak binding)
[17] = target: T5, KAAG1 disordered region peptide, …; experiment: modified sandwich ELISA (scaffold coated, biotinylated peptide, streptavidin-HRP fluorescence)
[18] = target: T5, KAAG1 disordered region peptide, …; experiment: as above
[19] = target: T2, CYSLTR2 N-terminal disordered region, …; experiment: as above

B2: S055 (designed binder)
chain: GSHSMRYNYTSVSRPGRGEPRFLSEGHVDDTQFVRFDSDAASPREEPRAPWIEQEGPEYWDRNTQIYKAQAQTDRESLRNLRGYYNQSEAGSHTLQSIYGCDVGPDGRLLRGHDQYYYDGKDYISLNEDLRSWTAADTAAQITQRKWEAAREAEQRRAYLEGECVEWLRRYLENGKDKLERADGGSHHHHHHLE
fluorescent signal [7]: 50000 to 100000 fluorescentsignal | fluorescent signal [8]: > 400000 fluorescentsignal

B3: S056 (designed binder)
chain: GSHSMRYNYTSVSRPGRGEPRFLSEGHVDGQPFVRFDSDAASPREEPRAPWIEQEGPEYWDRNTQIYKAQAQTDRESLRNLRGYYNQSEAGLHSLNSIYVCDVGPDGRLLRGHDHYYYDGELYISLNEDLRSWTAADTAAQITQRKWEAAREAEQRRAYLEGECVEWLRRYLENGKDKLERADGGSHHHHHHLE
fluorescent signal [7]: 50000 to 100000 fluorescentsignal | fluorescent signal [8]: > 400000 fluorescentsignal

B4: S005 (designed binder)
chain: MIKEEHVIIQAEFYLNPDQSGEFMFDFDGDEIFHVDMAKKETVWRLEEFGRFASFEAQGALANIAVDKANLEIMTKRSNYTPMGDTRPRFLWQLKFECHFFNGTERVRLLERCIYNQEESVRFDSDVGEYRAVTELGRPDAEYWNSQKDLLEQRRAAVDTYCRHNYGVGESFTVQGGSHHHHHHLE
notes: Engineered scaffold derived from MHC II; derived from S007 by removing the immunoglobulin unit; also called v1.1; scaffold v1.1
Kd [9]: 840 nM | Relative Binding [2]: 18.5 x | Relative Binding (Fold Change) [2]: 18.5 x | binding result [10]: binds | binding result [5]: binds | EC50 (read off the curve) [6]: ~300 nM | binding result [11]: no binding (tested: <5000 (fluorescence signal, key))

B6: S078 (designed binder)
chain: GDTRPRFLWQLKFECHFFNGTERVRLLERCIYNQEESVRFDSDVGEYRAVTELGRPDAEYWNSQKDLLEQRRAAVDTYCRHNYGVGESFTVQRRSGGGIKEEHVIIQAEFYLNPDQSGEFMFDFDGDEIFHVDMAKKETVWRLEEFGRFASFEAQGALANIAVDKANLEIMTKRSNYTGGSHHHHHHLE
fluorescent signal [16]: 50000 to 100000 fluorescentsignal | binding result [17]: no binding (tested: <5000 (fluorescence signal, key)) | fluorescent signal [8]: > 400000 fluorescentsignal

B7: S098 (designed binder)
chain: PENYLFQGRQECNGTQFLERYIYNREEFVRFDEFRAVGRPDEEYWNSQKDILEEERAVPDRMCRHNYELGGPMTLQRRVQPRVNIKADHVSTYAAFVQRPFMFEFDEDEMFYVDLHLEEFGQAFSFEAQGGLANIAILNNNLNTRSNHTQATNDPPHHHHHHLE
binding result [18]: no binding (tested: <5000 (fluorescence signal, key)) | binding result [11]: no binding (tested: <5000 (fluorescence signal, key))

Continued, in another order:

binding result [1]: binds | Relative Binding [2]: 37.2 x | Relative Binding (Fold Change) [2]: 37.2 x | fold higher affinity compared to a non-specific protein binder [3]: > 65 fold | binding result [4]: binds | binding result (MERKFMSLQPSISVSEMEPNG): no binding (tested: 10000 nM) | binding result [5]: binds | EC50 (read off the curve) [6]: ~500 nM
B1: S090 (designed binder)
chain: IKEEHSIRQNEMYLNPDQSGLFEFHLDGQPIFRVDMQKKRTKWQLEEFGRFASFEAQGALANIAVDKANLEIMTKRSNQSEAGSHSWQLIFVCEFHEGTESVRLSERCYYNQELSVSFNSDVGEYRAVTELGRPDAEYWNSQKDLLEQRRAAVDTYCRHNYGVGESFTVQRRGGSHHHHHHLE
notes: Rationally designed from v1.1 (S005); By SEC it is a mixture of monomers, dimers and multimers, at least 50% monomer; also called v1.2; scaffold v1.2

binding result [4]: binds | binding result (MERKFMSLQPSISVSEMEPNG): no binding (tested: 10000 nM) | binding result [12]: no binding (tested: 10000 nM) | binding result [13]: no binding (tested: 10000 nM) | binding result [5]: no binding (tested: 10000 nM) | binding result [14]: no binding (tested: 10000 nM) | binding result [15]: binds
B5: S177 (designed binder)
chain: MIKEEHVINQAEYYLNPDQSGEFKFDFDGDEIFHVDMAKKETVWRLEEFGRFASFEAQGALAHIAVDKANLEIMTKRSNYTPMGDTRPRFLWQLKYECHFFNGTERVRLNERCIYNQEESVRFDSDVGEYRAVTELGRPDAEQWNSQKDHLEQRRAAVDTKCRHNYGVGESFTVQGGSHHHHHHLE
notes: Computationally derived from S005; 21.92 kDa

fluorescent signal [8]: > 400000 fluorescentsignal
B8: S084 (designed binder)
chain: IKEEHVIQQSEYYTNPDQSGEFQFDFDGDEIFHVDMAKKETVWRLEEFGRFASFEAQGALANIAVDKANLEIMTKRSNYTGDTRPRFNWQLKFECHFFNGTERVRLLERCNYNQEESVRFDSDVGEYRAVTELGRPDAEYWNSQKDLLEQRRAAVDTYCRHNYGVGESFTVQRRGGSHHHHHHLE
binding result [19]: no binding (tested: <5000 (fluorescence signal, key)) | binding result [17]: no binding (tested: <5000 (fluorescence signal, key))
